Reference: patent US20250145729A1 (DENALI THERAPEUTICS, published 2025)

T1: circularly permuted cyno TfR apical domain (cynomolgus monkey)
T1 construct: same design as the human construct; also called cyTfR Apical Domain; cynomolgus TfR apical domain
T1 chain: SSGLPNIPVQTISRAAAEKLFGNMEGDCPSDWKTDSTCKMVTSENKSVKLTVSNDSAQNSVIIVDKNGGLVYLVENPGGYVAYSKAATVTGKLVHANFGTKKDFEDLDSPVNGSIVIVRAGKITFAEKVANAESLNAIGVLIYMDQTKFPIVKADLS

T2: circularly permuted human TfR apical domain (human)
T2 construct: TfR residues 326-379 stand N-terminal to 194-296, loop 297-325 deleted; also called huTfR Apical Domain
T2 chain: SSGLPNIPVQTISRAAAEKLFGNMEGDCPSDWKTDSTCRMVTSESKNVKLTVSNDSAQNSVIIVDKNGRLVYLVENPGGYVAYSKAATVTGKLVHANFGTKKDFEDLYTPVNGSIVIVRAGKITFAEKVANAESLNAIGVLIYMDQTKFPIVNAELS

B1: 42.8.216 (Fc fusion)
chain: APEAAGGPSVFLFPPKPKDTLMISRTPEVTCVVVDVSHEDPEVKFNWYVDGVEVHNAKTKPREEQYNSTYRVVSVLTVLHQDWLNGKEYKCKVSNKALGAPIEKTISKAKGQPREPQVYTLPPSRDELTKNQVSLTCLVKGFYPSDIAVEWFYEDSKLSNYKTTPPVLDSDGSFFLYSKLTVDKSRWQQGNLFACEVMHEALHNHYTYKLLSLSPGK
notes: bivalent; P329G+LALA
B2: 42.8.188 (Fc fusion)
chain: APEAAGGPSVFLFPPKPKDTLMISRTPEVTCVVVDVSHEDPEVKFNWYVDGVEVHNAKTKPREEQYNSTYRVVSVLTVLHQDWLNGKEYKCKVSNKALGAPIEKTISKAKGQPREPQVYTLPPSRDELTKNQVSLTCLVKGFYPSDIAVEWFYEGSKETNYKTTPPVLDSDGSFFLYSKLTVDKSRWQQGNLFACEVMHEALHNHYTYKLLSLSPGK
notes: bivalent; P329G+LALA
B3: 42.2.1-20 (Fc fusion)
chain: APEAAGGPSVFLFPPKPKDTLMISRTPEVTCVVVDVSHEDPEVKFNWYVDGVEVHNAKTKPREEQYNSTYRVVSVLTVLHQDWLNGKEYKCKVSNKALGAPIEKTISKAKGQPREPQVYTLPPSRDELTKNQVSLTCLVKGFYPSDIAVEWFADASKQRNYKTTPPVLDSDGSFFLYSKLTVDKSRWQQGNLFACEVMHEALHNHYTYKLLSLSPGK
notes: P329G+LALA
B4: 42.8.10 (Fc fusion)
chain: APEAAGGPSVFLFPPKPKDTLMISRTPEVTCVVVDVSHEDPEVKFNWYVDGVEVHNAKTKPREEQYNSTYRVVSVLTVLHQDWLNGKEYKCKVSNKALGAPIEKTISKAKGQPREPQVYTLPPSRDELTKNQVSLTCLVKGFYPSDIAVEWFSGGSKLNNYKTTPPVLDSDGSFFLYSKLTVDKSRWQQGNLFACEVMHEALHNHYTYKLLSLSPGK
notes: bivalent; P329G+LALA
B5: 42.2.3-5 (Fc fusion)
chain: APEAAGGPSVFLFPPKPKDTLMISRTPEVTCVVVDVSHEDPEVKFNWYVDGVEVHNAKTKPREEQYNSTYRVVSVLTVLHQDWLNGKEYKCKVSNKALGAPIEKTISKAKGQPREPQVYTLPPSRDELTKNQVSLTCLVKGFYPSDIAVEWFYGNGKETNYKTTPPVLDSDGSFFLYSKLTVDKSRWQQGNLFACEVMHEALHNHYTYKLLSLSPGK
notes: P329G+LALA
B6: 42.2 (Fc fusion)
chain: APEAAGGPSVFLFPPKPKDTLMISRTPEVTCVVVDVSHEDPEVKFNWYVDGVEVHNAKTKPREEQYNSTYRVVSVLTVLHQDWLNGKEYKCKVSNKALGAPIEKTISKAKGQPREPQVYTLPPSRDELTKNQVSLTCLVKGFYPSDIAVEWFSDGSKETNYKTTPPVLDSDGSFFLYSKLTVDKSRWQQGNLFACEVMHEALHNHYTYKLLSLSPGK
notes: bivalent; P329G+LALA; also called 6.5.11.5.42.2
B7: 42.2.19 (Fc fusion)
chain: APEAAGGPSVFLFPPKPKDTLMISRTPEVTCVVVDVSHEDPEVKFNWYVDGVEVHNAKTKPREEQYNSTYRVVSVLTVLHQDWLNGKEYKCKVSNKALGAPIEKTISKAKGQPREPQVYTLPPSRDELTKNQVSLTCLVKGFYPSDIAVEWFYDDSKLTNYKTTPPVLDSDGSFFLYSKLTVDKSRWQPRGLFACEVMHEALHNHYTYKLLGESPGK
notes: P329G+LALA
B8: 42.8.9 (Fc fusion)
chain: APEAAGGPSVFLFPPKPKDTLMISRTPEVTCVVVDVSHEDPEVKFNWYVDGVEVHNAKTKPREEQYNSTYRVVSVLTVLHQDWLNGKEYKCKVSNKALGAPIEKTISKAKGQPREPQVYTLPPSRDELTKNQVSLTCLVKGFYPSDIAVEWFSGGSKESNYKTTPPVLDSDGSFFLYSKLTVDKSRWQQGNLFACEVMHEALHNHYTYKLLSLSPGK
notes: bivalent; P329G+LALA

Experiments:
[1] = target: T1, circularly permuted cyno TfR apical …; assay: SPR, supernatant, anti-Fab capture
Procedure: (§1) Clones were expressed in HEK293 cells. Supernatants were captured for SPR by GE Healthcare anti-human Fab capture kit and the affinity to human and cyno TfR apical domain was measured (Table 30). The clones in Table 30 were bivalent and each TfR-binding Fc polypeptide also contained P329G and LALA mutations.

[2] = target: T2, circularly permuted human TfR apical …; assay: SPR, supernatant, anti-Fab capture
Procedure: as §1

Row | Binder | Kd [1] | Kd [2]
1 | B1 | 5.85 µM | 421 nM
2 | B2 | 12.5 µM | 1030 nM
3 | B3 | 7 µM | 440 nM
4 | B4 | 11.1 µM | 3760 nM
5 | B5 | 1.8 µM | 260 nM
6 | B6 | 7.5 µM | 1000 nM
7 | B7 | 1 µM | 80 nM
8 | B8 | 14.3 µM | 1850 nM
